From patent publication US20220204623A1 (BIO THERA SOLUTIONS, published 2022) come the findings set out here.

The term Kd denotes a measure of binding affinity in units of concentration. Read a high Kd as a looser complex. What is called EC50 is the concentration giving half of the maximal effect. As a reminder, the IC50 is the concentration needed to halve the response being measured. Read a low IC50 as inhibition by little substance. In general, koff refers to the first-order rate constant of dissociation. High values mean a short-lived complex, low ones a long-lived complex. For orientation: kon means the rate constant with which the complex forms. The low end stands for slow association, the high end for fast association.

The target in test [1] is hPD-1 (Sino Biological Inc., Catalog No.: 10377-H03H-B) (human) (UniProt Q15116). The test is described as follows: BLI (Octet) as in Example 4, biotinylated hPD-1 on streptavidin biosensor. In general terms: BLI is a label-free optical method that tracks binding on a fibre tip over time.
For test [2], the target named is T1, hPD-1 on hPD-1-expressing Jurkat cells (Promega, Catalog No.: J1252) (human, UniProt Q15116 25-288). As to the kind of experiment: cell-based or functional assay.
Test [3] has as its target T2, hPD-1 (Sino Biological Inc., Catalog No.: 10377-H03H-B) (human, UniProt Q15116 25-167).
T2 construct: Bought protein; also called human PD-1; purified hPD-1
The test is described as follows: ELISA, hPD-1 coated on the plate. As to the method:
The binding of the antibodies to hPD-1 was determined by enzyme-linked immunosorbent assay (ELISA). hPD-1 was coated on a 96-well plate by incubation overnight at 4° C. After coating, the plate was washed 5 times with PBST. […] After the binding, the plate was washed 5 times with PBST. The resulting solution was incubated at room temperature in PBST that contained peroxidase (HRP)-labeled goat anti-mouse IgG solution diluted to 1/10000 for 1 hour, washed again, and developed with TMB.
On the technique in general: An ELISA detects its analyte on a solid surface through an enzyme-linked reagent.

Test [4] has as its target T2, hPD-1 (Sino Biological Inc., Catalog …). The test is described as follows: BLI (Octet) as in Example 4, biotinylated hPD-1 on streptavidin biosensor. The method, then:
(§1) A streptavidin biosensor was pre-wetted by immersing in PBS in a well for 10 minutes, and then the biosensor was equilibrated with PBS for 2 minutes. The biosensor was immersed in the solution of 20 μg/mL biotinylated hPD-1 in PBS for 5 minutes to couple with biotinylated hPD-1, and then was equilibrated with PBS for 2 minutes. The biosensors were placed in wells containing antibody solutions of various concentrations (0.125 to 2 nM, SDS-PAGE purity >99%) to observe their binding to the anti-PD-1 antibody, and the binding was monitored and measured for 30 minutes. After the biosensor was transferred to PBS, dissociation was monitored and measured for 90 minutes. The observed binding and dissociation rates (kbinding and kdissociation) were fitted with a 1:1 binding global fit model containing all test concentrations, and the equilibrium binding constant KD was calculated.
The amino acid sequences of VL and VH regions of the related antibodies are shown in the sequence listing.

The target in test [5] is T1, hPD-1 on hPD-1-expressing Jurkat cells …. As to the kind of experiment: flow cytometry, blocking of 1 ug/mL unlabeled hPD-L1 binding to hPD-1-expressing Jurkat cells. The method, then: The blocking of ligand binding was assayed by flow cytometry. […] The mixture was placed on ice for 30 minutes, washed 3 times with FACS buffer (PBS containing 0.3% BSA), and incubated with PE-labeled goat anti-human Fc on ice for another 30 minutes. Cells were washed three more times with FACS buffer and analyzed by flow cytometry. Data were analyzed using nonlinear regression of Prism software, and IC₅₀ values were calculated.
On the technique in general: A flow cytometer gives signals particle by particle.

Test [6] has as its target T2, hPD-1 (Sino Biological Inc., Catalog …). The test is described as follows: SPR (Biacore), antibody captured on protein A chip, PD-1 in solution 0.625-10 nM, 1:1 Langmuir fit. As to the method:
A protein A chip was used for detection. […] Then the flow rate was adjusted to 30 μl/min, and PD-1 solutions of different concentrations (0.625 nM, 1.25 nM, 2.5 nM, 5 nM, and 10 nM) were fed in sequence, with a binding time of 180 s and a dissociation time of 1,200 s.

Test [7] has the same target. The test is described as follows: BLI (ForteBio Octet), biotinylated hPD-1 on streptavidin biosensor, antibody in solution, 1:1 global fit. The method, then:
The assay was performed by coupling a hPD-1 fusion protein to a streptavidin biosensor using biotin.
as §1

Substitutions are numbered along the chain they refer to.

T2 sequence (Q15116 25-167): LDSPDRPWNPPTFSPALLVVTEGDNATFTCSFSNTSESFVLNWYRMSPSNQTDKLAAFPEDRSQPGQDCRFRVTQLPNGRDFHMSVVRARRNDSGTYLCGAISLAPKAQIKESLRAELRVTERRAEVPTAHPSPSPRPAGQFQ
Chain of hPD-1 (Sino Biological Inc., Catalog No.: 10377-H03H-B) (human) (Q15116 25-167): as above
T1 sequence (Q15116 25-288): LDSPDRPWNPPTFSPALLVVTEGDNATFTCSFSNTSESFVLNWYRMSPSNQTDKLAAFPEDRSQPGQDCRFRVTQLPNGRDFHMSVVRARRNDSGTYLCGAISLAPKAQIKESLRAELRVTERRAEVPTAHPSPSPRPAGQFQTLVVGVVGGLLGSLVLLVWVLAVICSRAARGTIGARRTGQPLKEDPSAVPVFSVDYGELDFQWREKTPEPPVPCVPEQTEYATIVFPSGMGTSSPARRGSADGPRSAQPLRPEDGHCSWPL

B1: CL1 VH (SEQ ID NO: 7) / CL1 VL (SEQ ID NO: 8), scFv (scFv, part only; not given: linker, domain order, tag, V domains shown, not shown: another chain or arm of the molecule; small tags and cut ends)
VH: QVQLVQSGVEVKKPGASVKVSCKASGYTFTNYYMYWVRQAPGQGLEWMGGINPSNGGTNFNEKFKNRVTLTTDSSTTTAYMELKSLQFDDTAVYYCAARDYRLDMGFEFWGQGTTVTVSS
VL: EIVLTQSPATLSLSPGERATLSCRASKGVSTSGYSYLHWYQQKPGQAPRLLIYLASYLESGVPARFSGSGSGTDFTLTISSLEPEDFAVYYCQHAYDLPLTFGGGTKVEIK
In test [1], B1 showed a Kd of 82 pM.

B2: CL1 VH (SEQ ID NO: 7) / CL7 VL (SEQ ID NO: 40), scFv (scFv, part only; not given: linker, domain order, tag, V domains shown, not shown: another chain or arm of the molecule; small tags and cut ends)
VH: B1 VH
VL: B1 VL with A95S, D97S, L98F
As for B2, the Kd in test [1] turned out to be 149 pM.

B3: CL1 VH (SEQ ID NO: 7) / CL9 VL (SEQ ID NO: 12), scFv (scFv, part only; not given: linker, domain order, tag, V domains shown, not shown: another chain or arm of the molecule; small tags and cut ends)
VH: B1 VH
VL: B1 VL with A95S, D97G, L100V
In turn, B3 returned a Kd in test [1] of 518 pM.

B4: antibody CL1 (antibody, human IgG4 S228P, kappa, V domains shown)
VH: B1 VH
VL: EIVLTQSPATLSLSPGERATLSCRASKGVSTSGYSYLHWYQQKPGQAPRLLIYLASYLESGVPARFSGSGSGTDFTLTISSLEPEDFAVYYCQHAYDLPLTFGGGTKVEIKR
notes: also called anti-hPD-1 antibody CL1; CL1 VH / CL1 VL IgG4
Regarding B4, the “Assay for the functional activity EC50” value in test [2] stood at 0.269 µg/mL. Further, in test [3], the response was half-maximal at 208 pM (EC50). In addition, the Kd in test [4] is 20.7 pM; in test [6], 606 pM; in test [7] it was 20.7 pM. In test [5], the IC50 is 770 pM. Also, the koff in test [6] amounted to 0.0005 s⁻¹; in test [7] it was 4.11e-05 s⁻¹. The figures for the kon in test [6] and in test [7] were 825000 M⁻¹ s⁻¹ and 1.98e+06 M⁻¹ s⁻¹, respectively.

B5: CL1 VH (SEQ ID NO: 7) / CL5 VL (SEQ ID NO: 10), scFv (scFv, part only; not given: linker, domain order, tag, V domains shown, not shown: another chain or arm of the molecule; small tags and cut ends)
VH: B1 VH
VL: B1 VL with A95S
In turn, B5 registered a Kd in test [1] of 143 pM.

B6: CL1 VH (SEQ ID NO: 7) / CL5 VL (SEQ ID NO: 10), IgG4 (antibody, V domains shown)
VH: B1 VH
VL: B1 VL with A95S
notes: Form IgG4
On to B6, for which, in test [4], the Kd came out at 76 pM.

B7: CL1 VH (SEQ ID NO: 7) / CL2 VL (SEQ ID NO: 38), scFv (scFv, part only; not given: linker, domain order, tag, V domains shown, not shown: another chain or arm of the molecule; small tags and cut ends)
VH: B1 VH
VL: B1 VL with A95S, D97G
B7 came in with a Kd in test [1] of 447 pM.

B8: CL1 VH (SEQ ID NO: 7) / CL2 VL (SEQ ID NO: 38), IgG4 (antibody, V domains shown)
VH: B1 VH
VL: B1 VL with A95S, D97G
notes: Form IgG4
On to B8, for which the dissociation constant (Kd) in test [4] came out at 189 pM.

B9: antibody CL9 (antibody, human IgG4, V domains shown)
VH: B1 VH with R102K, L103F
VL: B1 VL with A95S, D97G, L100V
For B9, the EC50 in test [3] was determined as 594 pM.

B10: CL1 VH (SEQ ID NO: 7) / CL7 VL (SEQ ID NO: 40), IgG4 (antibody, V domains shown)
VH: B1 VH
VL: B1 VL with A95S, D97S, L98F
notes: Form IgG4
In test [4], B10 displayed a dissociation constant Kd of 61 pM.

B11: antibody CL7 (antibody, human IgG4, V domains shown)
VH: B1 VH with L103F
VL: B1 VL with A95S, D97S, L98F
Consider B11, for which, in test [3], the EC50 turned out to be 346 pM.

B12: antibody CL6 (antibody, human IgG4, V domains shown)
VH: B1 VH with L103F
VL: B1 VL with A95S
On to B12, for which a half-maximal effect in test [3] (EC50) was put at 1340 pM.

B13: antibody CL2 (antibody, human IgG4, V domains shown)
VH: B1 VH with R102K, L103F, F109Y
VL: B1 VL with A95S, D97G
Regarding B13, a half-maximal effect in test [3] (EC50) was put at 451 pM.

B14: CL1 VH (SEQ ID NO: 7) / CL9 VL (SEQ ID NO: 12), IgG4 (antibody, V domains shown)
VH: B1 VH
VL: B1 VL with A95S, D97G, L100V
notes: Form IgG4
B14 returned a Kd in test [4] of 229 pM.

B15: antibody CL5 (antibody, human IgG4, V domains shown)
VH: B1 VH with L103F, F109Y
VL: B1 VL with A95S
Turning to B15, the “Assay for the functional activity EC50” value in test [2] turned out to be 0.932 µg/mL. The molecule also yielded an EC50 in test [3] of 399 pM.
